This passage reports FRET efficiency of the soluble fraction of the sensor co-expressed with CaM in E. coli, relative to the WT biosensor, FRET efficiency (ratio of peak emission and FRET efficiency results from article PMC8138981.

Assay [1] addresses mTFP1-AB-mcpVenus folding biosensor, W344R (human).
The target of assay [2] is mTFP1-AB-mcpVenus folding biosensor, WT (human).
Assay [3] deals with YFP-tagged Kv7.2 WT channel (human) (UniProt O43526). As to the kind of experiment: FRET or BRET; living HEK293T cells; mCFP-CaM (donor) and YFP (mCitrine)-tagged Kv7.2, ABCD or AB (acceptor), transfection ratio 1:5; spectral unmixing of confocal images; room temperature, buffer with 2 mM CaCl2, pH 7.4.
Sequence of YFP-tagged Kv7.2 WT channel (human) (O43526 other isoform, or with tags, fused parts or gaps): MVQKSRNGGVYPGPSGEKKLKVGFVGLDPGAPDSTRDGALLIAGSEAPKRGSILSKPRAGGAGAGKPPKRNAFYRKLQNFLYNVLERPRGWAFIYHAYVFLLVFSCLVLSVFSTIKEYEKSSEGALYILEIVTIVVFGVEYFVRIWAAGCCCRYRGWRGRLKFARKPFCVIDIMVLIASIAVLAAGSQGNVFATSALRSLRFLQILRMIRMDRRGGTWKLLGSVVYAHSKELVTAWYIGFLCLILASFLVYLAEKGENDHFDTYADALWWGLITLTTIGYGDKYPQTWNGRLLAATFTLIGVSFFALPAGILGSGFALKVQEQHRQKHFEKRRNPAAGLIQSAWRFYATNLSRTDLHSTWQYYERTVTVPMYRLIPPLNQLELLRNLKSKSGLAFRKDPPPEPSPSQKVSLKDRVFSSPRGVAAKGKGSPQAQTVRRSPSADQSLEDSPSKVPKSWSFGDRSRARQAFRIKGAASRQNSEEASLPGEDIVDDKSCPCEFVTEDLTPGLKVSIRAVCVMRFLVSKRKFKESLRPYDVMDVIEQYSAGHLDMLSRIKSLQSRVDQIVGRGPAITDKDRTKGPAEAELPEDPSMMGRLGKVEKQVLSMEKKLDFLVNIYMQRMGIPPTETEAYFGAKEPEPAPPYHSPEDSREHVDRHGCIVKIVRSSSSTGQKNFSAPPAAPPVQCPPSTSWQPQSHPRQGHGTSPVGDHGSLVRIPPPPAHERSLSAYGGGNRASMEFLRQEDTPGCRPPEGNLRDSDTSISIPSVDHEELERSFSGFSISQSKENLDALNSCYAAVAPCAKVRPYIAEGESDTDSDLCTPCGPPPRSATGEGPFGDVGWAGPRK

Sequence of mTFP1-AB-mcpVenus folding biosensor, WT (human) (O43526 whole entry): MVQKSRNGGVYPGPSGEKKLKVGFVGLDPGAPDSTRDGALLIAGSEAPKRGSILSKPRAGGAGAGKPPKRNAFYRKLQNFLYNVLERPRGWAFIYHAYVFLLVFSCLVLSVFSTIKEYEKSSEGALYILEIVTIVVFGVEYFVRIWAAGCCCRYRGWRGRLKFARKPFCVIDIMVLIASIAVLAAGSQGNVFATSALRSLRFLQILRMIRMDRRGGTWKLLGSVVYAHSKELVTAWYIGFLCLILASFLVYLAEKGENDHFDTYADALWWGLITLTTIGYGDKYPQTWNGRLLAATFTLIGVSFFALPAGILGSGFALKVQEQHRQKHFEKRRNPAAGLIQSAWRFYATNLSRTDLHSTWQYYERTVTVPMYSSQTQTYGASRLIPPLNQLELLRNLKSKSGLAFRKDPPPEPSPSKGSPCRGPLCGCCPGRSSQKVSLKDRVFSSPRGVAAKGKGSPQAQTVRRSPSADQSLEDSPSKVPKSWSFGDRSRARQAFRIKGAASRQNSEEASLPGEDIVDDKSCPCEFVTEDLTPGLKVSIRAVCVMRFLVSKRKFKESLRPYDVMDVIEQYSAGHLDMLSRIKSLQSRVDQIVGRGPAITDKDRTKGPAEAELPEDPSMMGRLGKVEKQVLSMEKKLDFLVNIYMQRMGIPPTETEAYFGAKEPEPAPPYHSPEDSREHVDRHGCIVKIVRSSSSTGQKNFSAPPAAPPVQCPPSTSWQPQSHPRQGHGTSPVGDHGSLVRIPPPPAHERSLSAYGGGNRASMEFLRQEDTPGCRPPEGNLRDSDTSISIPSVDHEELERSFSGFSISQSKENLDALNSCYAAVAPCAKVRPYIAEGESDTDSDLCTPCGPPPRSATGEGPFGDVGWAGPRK

Consider “Calmodulin (from UniProt P0DP23 1-149) (natural protein)”, for which, in assay [1], the FRET efficiency of the soluble fraction of the sensor co-expressed with CaM in E. coli, relative to the WT biosensor came to 33%. Moreover, in assay [2], the FRET efficiency (ratio of peak emission at 528 and 492 nm) of the folding sensor co-expressed with CaM worked out at 0.4. As for “Calmodulin with an N-terminus mCFP-tag (from UniProt P0DP23 1-149) (natural protein)”, the FRET efficiency in assay [3] was determined as 0.18.
